Test results taken from patent US20240409663A1 (CONCEPT TO MEDICINE BIOTECH, published 2024).
Each block holds one binder with its values, some of them ahead of it.

Assays:
human GPC3 on cells [1] = molecular target: T1, human GPC3 on cells (human, UniProt P51654 25-554); assay: FACS, Huh-7 cells
T1 construct: whole, on cells; over-expressed on CHOK1 cells or endogenous on HEPG2, Hep3B and Huh-7 hepatocellular carcinoma cells; the cell line is named under assay; also called GPC3-CHOK1 cells; human GPC3 over-expressed CHOK1 cells
Procedure: (§1) To evaluate the antigen binding property, the humanized antibodies were analyzed for their binding to human GPC3 over-expressed CHOK1 cells, HEPG2 cells, Hep3B cells and Huh-7 cells by FACS. Briefly, GPC3-CHOK1 cells, HEPG2 cells, Hep3B cells and Huh-7 cells were firstly incubated with Fc blocking reagent at 4° C. for 15 mins. Cells were washed by FACS buffer and divided to each well with 4-fold serially diluted humanized antibodies starting at 10 μg/mL at 4° C. for 60 mins. Cells were washed by FACS buffer and fixed with 2% PFA at RT for 15 mins. […] The 16 humanized antibodies were separated into two plates.

human GPC3 on cells [2] = molecular target: T1, human GPC3 on cells; assay: FACS, HEPG2 cells
Procedure: as §1

human GPC3 on cells [3] = molecular target: T1, human GPC3 on cells; assay: FACS, Hep3B cells
Procedure: as §1

[4] = molecular target: T2, human GPC3-his tag protein (human, UniProt P51654 25-559, limits assumed); assay: SPR Biacore, mAb captured on CM5, GPC3-his dilution series (full kinetics)
T2 construct: recombinant soluble antigen used as analyte in all Biacore runs; also called recombinant GPC3 protein; rhGPC3-His; not shown: His tag
Procedure: The binding of the humanized antibodies to recombinant GPC3 protein (human GPC3-his tag) was tested by Biacore using a capture method. 52H5D3B8-6 #-V+VL, 52H5D3B8-6 #-VH1+VL1, 52H5D3B8-6 #-VH1+VL3, 52H5D3B8-6 #-V1+VL4, 52H5D3B8-6 #-VH2+VL4, 52H5D3B8-6 #-VH3+VL1, 52H5D3B8-6 #-VH3+VL3 mAbs were captured using CM5 sensor chip. A serial dilution of human GPC3-his tag protein was injected over captured antibody for 2 mins at a flow rate of […]. The antigen was allowed to dissociate for 360 s. All the experiments were carried out on a Biacore T200.

[5] = molecular target: T2, human GPC3-his tag protein; assay: SPR Biacore 8K, mAb captured, affinity ranking
Procedure: To evaluate antigen binding activity, the chimeric antibody's affinity was measured by Biacore 8K. A serial dilution of human GPC3-his tag protein was injected over captured chimeric antibody 52H5D3B8-6 #-VH+VL for 3 mins at a flow rate of 30 μl/min. The antigen was allowed to dissociate for 720 s. Among the multi detection doses, two concentrations with most close affinity to the chimeric antibody's affinity were chosen for the 16 humanized antibodies' affinity detection.

human GPC3 on cells [6] = molecular target: T1, human GPC3 on cells; assay: FACS, GPC3-CHOK1 cells
Procedure: as §1

human GPC3 on cells [7] = molecular target: T1, human GPC3 on cells; assay: FACS, Huh-7 cells; remark: listed apart in the source
Procedure: as §1, with “CHOK1” for “CHOK1 cells, HEPG2 cells, Hep3B”, “GPC3-CHOK1” for “GPC3-CHOK1 cells, HEPG2 cells, Hep3B”, “As different plates might affect the EC50 of 52H5D3B8-VH+VL, the 12” for “The 16”

[8] = molecular target: T2, human GPC3-his tag protein; assay: SPR Biacore 8K, mAb captured, affinity ranking; remark: listed apart in the source
Procedure: To evaluate antigen binding activity, the chimeric antibody's affinity was measured by Biacore 8K. Two concentrations with most close affinity to the chimeric antibody's affinity were chosen for the 12 humanized antibodies' affinity detection. Human GPC3-his tag protein was injected over captured antibody for 3 mins at a flow rate of 30 μl/min. The antigen was allowed to dissociate for 720 s.

human GPC3 on cells [9] = molecular target: T1, human GPC3 on cells; assay: FACS, GPC3-CHOK1 cells; remark: listed apart in the source
Procedure: as §1, with “CHOK1” for “CHOK1 cells, HEPG2 cells, Hep3B”, “GPC3-CHOK1” for “GPC3-CHOK1 cells, HEPG2 cells, Hep3B”, “As different plates might affect the EC50 of 52H5D3B8-VH+VL, the 12” for “The 16”

human GPC3 on cells [10] = molecular target: T1, human GPC3 on cells; assay: cell-based or functional assay
human GPC3 on cells [11] = molecular target: T1, human GPC3 on cells; assay: FACS, GPC3-CHOK1 cells; remark: listed apart in the source
Procedure: To evaluate the antigen binding property, the affinity maturated antibodies were analyzed for their binding to human GPC3 over-expressed CHOK1 cells by FACS as previously described.

human GPC3 on cells [12] = molecular target: T1, human GPC3 on cells; assay: cell-based or functional assay; remark: listed apart in the source
human GPC3 on cells [13] = molecular target: T1, human GPC3 on cells; assay: FACS, GPC3-CHOK1 cells; remark: listed apart in the source
Procedure: Cell-based binding: FACS was used to evaluate the binding activity of chimeric mAbs (18C1D9, 52H5D3B8, 163E7D12, 172B4E9, 152E9F7 and 171F9C5) with comparison to a known GPC3 antibody GC33 (Chugai Pharmaceutical) on human GPC3 over-expressed CHOK1 cells.
Briefly, GPC3-CHOK1 cells were washed by FACS buffer and divided to each well with 3-fold serially diluted chimeric mAbs or GC33 mAb starting at 5 μg/mL at 4° C. for 40 mins. […] Samples were washed twice with FACS buffer.

EC50 (human GPC3 on cells [1]): 0.0351 µg/mL
EC50 (human GPC3 on cells [2]): 0.0426 µg/mL
EC50 (human GPC3 on cells [3]): 0.0682 µg/mL
Kd [4]: 0.898 nM
koff [4]: 0.000538 s⁻¹
kon [4]: 600000 M⁻¹ s⁻¹
Kd [5]: 0.721 nM
koff [5]: 0.000514 s⁻¹
kon [5]: 714000 M⁻¹ s⁻¹
EC50 (human GPC3 on cells [6]): 0.0408 µg/mL
B1: 52H5D3B8-6#-VH3+VL3 (antibody, V domains shown)
VH: QVQLVQSGAEVKKPGASVKVSCKALGYTFTDYEMHWVKQAPGQGLEWIGAIHPGSGGTAYNQKFKGRVTLTADTSTSTVYMELSSLRSEDTAVYYCTRYYSYAYWGQGTLVTVSS
VL: DIVMTQTPLSLSVTPGQPASISCRSSQSLVHSNGNTYLQWYLQKPGQSPKLLIYKVSNRFSGVPDRFSGSGSGTDFTLKISRVEAEDVGVYYCFQSIHVPYTFGGGTKLEIK
notes: humanized

EC50 (human GPC3 on cells [7]): 0.0288 µg/mL
Kd [8]: 3.06 nM
koff [8]: 0.000905 s⁻¹
kon [8]: 295000 M⁻¹ s⁻¹
EC50 (human GPC3 on cells [9]): 0.04 µg/mL
B2: Hu 52H5D3B8-11 (antibody, V domains shown)
VH: EVQLVQSGAEVKKPGASVKVSCKASGYTFTDYEMHWVRQAPGQGLEWIGAIHPGSGGTAYNQKFKGKATLTADKSISTAYMELSRLRSDDTAVYYCTRFYSYAYWGQGTLVTVSS
VL: DVVMTQTPLSLSVTPGQPASISCRSSQSLVHSNGNTYLQWYLQKPGQSPQLLIYKVSNRFSGVPDRFSGSGSGTDFTLKISRVEAEDVGVYYCSQSIHVPYTFGGGTKVEIK
notes: humanized 52H5D3B8; also called 52H5D3B8 VH5 + VL0

EC50 of ADCC signaling (Jurkat-hCD16a-NFAT luciferase reporter), HEPG2 cells (human GPC3 on cells [10]): 0.0571 nM
EC50 of ADCC signaling (Jurkat-hCD16a-NFAT luciferase reporter), Huh-7 cells (human GPC3 on cells [10]): 0.124 nM
EC50 (human GPC3 on cells [11]): 0.207 nM
B3: 52H5D3B8-20#-VH2+VL3 (antibody, V domains shown)
VH: QVQLVQSGAEVKKPGASVKVSCKASGYRFTDYEMHWVRQAPGQGLEWIGAIHPGSGGTAYNQLFKGRVTMTADTSTSTVYMELSSLRSEDTAVYYCTRYYSYAYWGQGTLVTVSS
VL: DIVMTQTPLSLSVTPGQPASISCRSSQSLVHSNGNTYLQWYLQKPGQSPKLLIYKVSNRFPGVPDRFSGSGSGTDFTLKISRVEAEDVGVYYCVESIHVPYTFGGGTKLEIK
EC50 of ADCC cytotoxicity (primary NK cells, LDH), HEPG2 cells (human GPC3 on cells [12]): 0.121 nM
EC50 of ADCC cytotoxicity (primary NK cells, LDH), Huh-7 cells (human GPC3 on cells [12]): 0.0287 nM

EC50 of ADCC signaling (Jurkat-hCD16a-NFAT luciferase reporter), HEPG2 cells (human GPC3 on cells [10]): 0.0844 nM
EC50 of ADCC signaling (Jurkat-hCD16a-NFAT luciferase reporter), Huh-7 cells (human GPC3 on cells [10]): 0.266 nM
EC50 (human GPC3 on cells [11]): 0.207 nM
B4: 52H5D3B8-19#-VH2+VL3 (antibody, V domains shown)
VH: QVQLVQSGAEVKKPGASVKVSCKASGYTFTGYEMHWVRQAPGQGLEWIGAIHPGSGGTAYNQKFKGRVTMTADTSTSTVYMELSSLRSEDTAVYYCTRYYSYAYWGQGTLVTVSS
VL: DIVMTQTPLSLSVTPGQPASISCRSSQSLVHSNGNTYLQWYLQKPGQSPKLLIYKVSNRFAGVPDRFSGSGSGTDFTLKISRVEAEDVGVYYCVESIHVPYTFGGGTKLEIK
EC50 of ADCC cytotoxicity (primary NK cells, LDH), HEPG2 cells (human GPC3 on cells [12]): 0.0852 nM
EC50 of ADCC cytotoxicity (primary NK cells, LDH), Huh-7 cells (human GPC3 on cells [12]): 0.0328 nM

EC50 of ADCC signaling (Jurkat-hCD16a-NFAT luciferase reporter), HEPG2 cells (human GPC3 on cells [10]): 0.202 nM
EC50 of ADCC signaling (Jurkat-hCD16a-NFAT luciferase reporter), Huh-7 cells (human GPC3 on cells [10]): 0.48 nM
EC50 (human GPC3 on cells [11]): 0.177 nM
B5: 52H5D3B8-18#-VH2+VL3 (antibody, V domains shown)
VH: QVQLVQSGAEVKKPGASVKVSCKASGYTFTRYEMHWVRQAPGQGLEWIGAIHPGSGGTAYNSKFKGRVTMTADTSTSTVYMELSSLRSEDTAVYYCTRYYSYAYWGQGTLVTVSS
VL: DIVMTQTPLSLSVTPGQPASISCRSSQSLVHSNGNTYLQWYLQKPGQSPKLLIYKVSNRYSGVPDRFSGSGSGTDFTLKISRVEAEDVGVYYCVESIHVPYTFGGGTKLEIK
EC50 of ADCC cytotoxicity (primary NK cells, LDH), HEPG2 cells (human GPC3 on cells [12]): 0.149 nM
EC50 of ADCC cytotoxicity (primary NK cells, LDH), Huh-7 cells (human GPC3 on cells [12]): 0.0826 nM

EC50 (human GPC3 on cells [7]): 0.0323 µg/mL
Kd [8]: 3.89 nM
koff [8]: 0.00104 s⁻¹
kon [8]: 267000 M⁻¹ s⁻¹
EC50 (human GPC3 on cells [9]): 0.0389 µg/mL
B6: Hu 52H5D3B8-10 (antibody, V domains shown)
VH: EVQLVQSGAEVKKPGASVKVSCKASGYTFTDYEMHWVRQAPGQGLEWIGAIHPGSGGTAYNQKFKGRVTLTADKSISTAYMELSRLRSDDTAVYYCTRFYSYAYWGQGTLVTVSS
VL: DVVMTQTPLSLSVTPGQPASISCRSSQSLVHSNGNTYLQWYLQKPGQSPQLLIYKVSNRFSGVPDRFSGSGSGTDFTLKISRVEAEDVGVYFCSQSIHVPYTFGGGTKVEIK
notes: humanized 52H5D3B8; also called 52H5D3B8 VH4 + VL1

EC50 (human GPC3 on cells [13]): 0.238 µg/mL
B7: 18C1D9 chimeric mAb (antibody, V domains shown)
VH: QVQLQQSGAELVRPGASVTLSCKASGYTFSDYEMHWVKQTPVHGLEWIGAIDPETGGTAYNQKFKGKATLTADKSSSTAYMELRSLTSEDSAVYYCTRYYSYAYWGQGTLVTVSA
VL: DVVMTQSPLSLPVSLGDQASISCRSRQSLVHSNGNTYLQWYLQKPGQSPKLLIYKVSNRFSGVPDRFSGSGSGTDFTLKISRVEAEDLGVYFCFQSIHVPYTFGGGTKLEKK

EC50 (human GPC3 on cells [13]): 0.142 µg/mL
B8: 171F9C5 chimeric mAb (antibody, V domains shown)
VH: QVQLQQSGAELVRPGASVTLSCKASGYTFTDYEIHWVKQTPVHGLEWIGAIDPETDNTAYSQKFKGKAILTADKSSSTAYMELRSLTSEDSAVYYCTRYYSYAYWGQGTLVTVSA
VL: DVVMTQTPLSLPVSLGDQASISCRSSQSPVHRNGNTYLHWYLQKPGQSPKLLIFKVSNRFSGVPDRFSGSGSGTDFTLKISRVAAEDLGVYFCSQTTHVPYTFGGGTKLEIK

EC50 (human GPC3 on cells [13]): 0.17 µg/mL
B9: 163E7D12 chimeric mAb (antibody, V domains shown)
VH: QVQLQQSGAELVRPGASVTLSCKASGYTFTDYEMHWVKQTPVHGLEWIGAIGPETGSTAYNQRFKGKAIVTADKSSSTAYMELRSLTSEDSAVYYCTRYYSFAYWGQGTLVTVSA
VL: DVVMTQTPLSLPVSLGGQASISCRSSQSLVHSNGNTYLQWYLQKPGQSPKLLIFKVSNRFSGVPDRFSGSGSGTDFTLKISRVEAEDLGVYFCFQSIHVPYTFGGGTKLEIK

EC50 (human GPC3 on cells [13]): 0.269 µg/mL
B10: 172B4E9 chimeric mAb (antibody, V domains shown)
VH: QVQLQQSGAELVRPGASVTLSCKASGYTFTDYEIHWVKQTPVHGLEWIGAIDPATGDTAYTQKFKGKAILTADTSSNTVYMELRGLTSEDSAVHFCTRFYSYAYWGQGTLVTVSA
VL: DVVMTQTPLSLPVSLGDQASISCRSSQSLVHTNGHTYLQWYLQKSGQSPRLLIFKVSNRFSGVPDRFSGSGSGTDFKLKISRVEAEDLGVYFCSQSTHVPYTFGGGTKLEIK

EC50 (human GPC3 on cells [13]): 0.14 µg/mL
B11: 152E9F7 chimeric mAb (antibody, V domains shown)
VH: QVQLQQSGAELVRPGASVTLSCKASGYTFTDYEIHWVKQTPVHGLEWIGAIDPETGDTAYTQKFKGKAILTADKSSNTVYMELRSLTSEDSAVYYCTRFYSYAYWGQGTLVTVSA
VL: DVVMTQTPLSLPVSLGDQASISCRSSQSLVHTNGHTYLQWYLQKSGQSPKLLIYKVSNRFSGVPDRFSGSGSGTDFTLKISRVEAEDLGVYFCSQSTHVPYTFGGGTKLEIK
